Experiments:
[1] = biological target: F protein of HMPV genogroup A1 strain (virus in plaque reduction assay) (human metapneumovirus) (UniProt Q6WB98); assay: cell-based or functional assay
[2] = biological target: F protein of HMPV genogroup A2 strain (virus in plaque reduction assay) (human metapneumovirus) (UniProt Q6WB98); assay: cell-based or functional assay
[3] = biological target: F protein of HMPV genogroup B1 strain (virus in plaque reduction assay) (human metapneumovirus) (UniProt Q6WB98); assay: cell-based or functional assay
[4] = biological target: F protein of HMPV genogroup B2 strain (virus in plaque reduction assay) (human metapneumovirus) (UniProt Q6WB98); assay: cell-based or functional assay
[5] = biological target: HMPV F ectodomain lacking the transmembrane domain (FΔTM), 6xHis-tagged, strain TN/92-4 (genogroup A2) (human metapneumovirus); assay: SPR (BIAcore 2000), HMPV FΔTM immobilized, 1:1 Langmuir fit

Substance: Fab DSλ7
- Neut. Conc. (60% plaque reduction), A1 [1]: 9.8 µg/mL
- Neut. Dilution (60% plaque reduction), A1 (dilution (1:x)) [1]: 120
- Neut. Conc. (60% plaque reduction) [2]: 1.1 µg/mL
- Neut. Conc. (60% plaque reduction), A2 [2]: 1.1 µg/mL
- Neut. Dilution (60% plaque reduction) (dilution (1:x)) [2]: 1110
- Neut. Dilution (60% plaque reduction), A2 (dilution (1:x)) [2]: 1040
- Neut. Conc. (60% plaque reduction), B1 [3]: 2.4 µg/mL
- Neut. Dilution (60% plaque reduction), B1 (dilution (1:x)) [3]: 488
- Neut. Dilution (60% plaque reduction), B2 (dilution (1:x)) [4]: < 20
- Kd [5]: 0.984 nM
- koff [5]: 3.48e-05 s⁻¹

Reference: patent US20110135645A1
